Results from paper PMC9370705, “Conformational Dynamics of Human ALKBH2 Dioxygenase in the Course of DNA Repair as Revealed by Stopped-Flow Fluorescence Spectroscopy”.

Assays:
ALKBH2 [1] = biological target: T1, ALKBH2 (Homo sapiens, UniProt Q6NS38 1-261); experiment: Trp fluorescence titration; Fe(II)/2OG complex per Figure 2 legend (text says ALKBH2); 50 mM HEPES-KOH pH 7.5, 50 mM KCl, 10 mM MgCl2, 25 °C (titration, 1 uM enzyme per legend); 2 mM EDTA for apo; stopped-flow buffer not printed in the material; conditions: protein: recombinant; (Ni-chelating column); blunt
T1 sequence: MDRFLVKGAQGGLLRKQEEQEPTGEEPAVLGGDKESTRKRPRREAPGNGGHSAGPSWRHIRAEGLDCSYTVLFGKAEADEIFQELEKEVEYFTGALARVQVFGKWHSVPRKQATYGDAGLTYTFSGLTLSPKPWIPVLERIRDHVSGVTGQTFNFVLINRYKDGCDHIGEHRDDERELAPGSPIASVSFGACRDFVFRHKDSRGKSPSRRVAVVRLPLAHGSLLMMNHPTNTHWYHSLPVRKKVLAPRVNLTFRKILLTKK

ALKBH2 [2] = biological target: T1, ALKBH2; experiment: stopped-flow εA fluorescence; Fe(II), 2OG; enzyme-product complex after εA repair; 50 mM HEPES-KOH pH 7.5, 50 mM KCl, 10 mM MgCl2, 25 °C (titration, 1 uM enzyme per legend); 2 mM EDTA for apo; stopped-flow buffer not printed in the material; conditions: protein: recombinant; (Ni-chelating column); blunt
ALKBH2 [3] = biological target: T1, ALKBH2; experiment: stopped-flow FRET; Fe(II), 2OG; overall KaSF (Eq. 1); 50 mM HEPES-KOH pH 7.5, 50 mM KCl, 10 mM MgCl2, 25 °C (titration, 1 uM enzyme per legend); 2 mM EDTA for apo; stopped-flow buffer not printed in the material; conditions: protein: recombinant; (Ni-chelating column); label: 5'-FAM and 3'-BHQ1 on strand 1; blunt
ALKBH2 [4] = biological target: T1, ALKBH2; experiment: stopped-flow FRET; Fe(II), 2OG; overall KaSF (Eq. 1); Table 2 rates give about 2.3e5; 50 mM HEPES-KOH pH 7.5, 50 mM KCl, 10 mM MgCl2, 25 °C (titration, 1 uM enzyme per legend); 2 mM EDTA for apo; stopped-flow buffer not printed in the material; conditions: protein: recombinant; (Ni-chelating column); label: 5'-FAM and 3'-BHQ1 on strand 1; blunt
ALKBH2 [5] = biological target: T1, ALKBH2; experiment: stopped-flow FRET; Fe(II), 2OG; initial complex k1/k-1; 50 mM HEPES-KOH pH 7.5, 50 mM KCl, 10 mM MgCl2, 25 °C (titration, 1 uM enzyme per legend); 2 mM EDTA for apo; stopped-flow buffer not printed in the material; conditions: protein: recombinant; (Ni-chelating column); label: 5'-FAM and 3'-BHQ1 on strand 1; blunt
ALKBH2 [6] = biological target: T1, ALKBH2; experiment: stopped-flow fluorescence (FRET/εA); Fe(II), 2OG; overall KaSF (Eq. 1); 50 mM HEPES-KOH pH 7.5, 50 mM KCl, 10 mM MgCl2, 25 °C (titration, 1 uM enzyme per legend); 2 mM EDTA for apo; stopped-flow buffer not printed in the material; conditions: protein: recombinant; (Ni-chelating column); label: 5'-FAM and 3'-BHQ1 on strand 1; blunt
ALKBH2 [7] = biological target: T1, ALKBH2; experiment: stopped-flow FRET; Fe(II), 2OG; enzyme-product complex after m1A repair; 50 mM HEPES-KOH pH 7.5, 50 mM KCl, 10 mM MgCl2, 25 °C (titration, 1 uM enzyme per legend); 2 mM EDTA for apo; stopped-flow buffer not printed in the material; conditions: protein: recombinant; (Ni-chelating column); label: 5'-FAM and 3'-BHQ1 on strand 1; blunt
ALKBH2 [8] = biological target: T1, ALKBH2; experiment: stopped-flow FRET; Fe(II), 2OG; enzyme-product complex after εA repair; 50 mM HEPES-KOH pH 7.5, 50 mM KCl, 10 mM MgCl2, 25 °C (titration, 1 uM enzyme per legend); 2 mM EDTA for apo; stopped-flow buffer not printed in the material; conditions: protein: recombinant; (Ni-chelating column); label: 5'-FAM and 3'-BHQ1 on strand 1; blunt

B1: undamaged 15 nt duplex (A instead of m1A); also product A of m1A or εA repair (dsDNA)
DNA 1: ACAGGATCCGGCATA
DNA 2: TATGCCGGATCCTGT
- Kd (ALKBH2 [1]): 7800 ± 1200 nM
- Kd (ALKBH2 [2]): 2200 ± 100 nM

B2: m1A_FRET (dsDNA)
DNA 1: ACAGGATCCGGCATA
DNA 2: TATGCCGGATCCTGT
modifications: N1-methyladenine at position 6 of strand 1
- Ka (ALKBH2 [3]): 600000 M⁻¹

B3: m3C_FRET (dsDNA)
DNA 1: ACAGGATCCGGCATA
DNA 2: TATGCCGGATCCTGT
modifications: N3-methylcytosine at position 9 of strand 1
- Ka (ALKBH2 [4]): 460000 M⁻¹
- Ka (ALKBH2 [5]): 230000 M⁻¹

B4: εA_FRET (dsDNA)
DNA 1: ACAGGATCCGGCATA
DNA 2: TATGCCGGATCCTGT
modifications: 1,N6-ethenoadenine at position 6 of strand 1
- Ka (ALKBH2 [6]): 1.9e+06 M⁻¹
- Ka (ALKBH2 [5]): 860000 M⁻¹

B5: repaired product of m1A_FRET or εA_FRET (dsDNA)
DNA 1: ACAGGATCCGGCATA
DNA 2: TATGCCGGATCCTGT
- Kd (ALKBH2 [7]): 1400 ± 200 nM
- Kd (ALKBH2 [8]): 400 ± 10 nM
